The record followed here is patent US20030200555A1.

The assay concerns the target APP695-derived polypeptide (SEQ.ID.NO.: 28) having the modified sequence NLDV (SEQ.ID.NO.: 7) (human) (UniProt P05067). In words: cell-based or functional assay.

As to “β-secretase (of the HEK293T cells in which the APP β-site mutants were expressed) (from UniProt P56817 46-501) (enzyme)”, the production of Aβ in the HEK293T cells (times the level of wild type APP695) was determined as 3.
